# According to PMC12482648, “G-quadruplex structural motifs modulate protein–RNA interactions within the transcriptome”:
# Columns and labels:
# [1] = target: T1, FUS C-terminal RNA-binding module (His6-FUS) (UniProt P35637 269-526); experiment: EMSA; 150 mM KCl; EMSA: 1 uM RNA, 0/0.1/1/5 uM His6-FUS, 50 mM HEPES-KOH (or HEPES-LiOH) pH 7.4, 150 mM KCl (or LiCl), 200 ng BSA, 2 mM EDTA, 2 mM DTT, 5% glycerol, 30 min 30 C; settings: protein: recombinant; tags: His6 (pET28a-TEV); label: none (SYBR Gold stain); none (non-G4)
# [2] = target: T1, FUS C-terminal RNA-binding module …; experiment: EMSA; 150 mM KCl; supershift with anti-His; EMSA: 1 uM RNA, 0/0.1/1/5 uM His6-FUS, 50 mM HEPES-KOH (or HEPES-LiOH) pH 7.4, 150 mM KCl (or LiCl), 200 ng BSA, 2 mM EDTA, 2 mM DTT, 5% glycerol, 30 min 30 C; settings: protein: recombinant, tags: His6 (pET28a-TEV), label: none (SYBR Gold stain)
# T1 sequence (P35637 269-526): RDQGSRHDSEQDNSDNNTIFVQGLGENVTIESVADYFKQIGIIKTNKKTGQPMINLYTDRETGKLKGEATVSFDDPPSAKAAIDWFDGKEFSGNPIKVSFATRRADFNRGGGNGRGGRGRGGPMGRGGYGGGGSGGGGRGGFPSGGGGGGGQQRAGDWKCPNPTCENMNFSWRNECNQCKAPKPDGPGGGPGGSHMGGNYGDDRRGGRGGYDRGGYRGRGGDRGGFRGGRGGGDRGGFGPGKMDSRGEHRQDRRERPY
Binder,binding result [1],binding result ([2]; intramolecular G4 (in K+)),also measured
UGUUGCGCGUGUCCCGUGGAGUGGA (ssRNA) [25COPS9 mutant],no binding,–,–
UUAGGGUUAGGGUUAGGGUUAGGG (structured_RNA) [TERRA WT],–,binds,–
AGUGUGAGUGUGUGUGUGCAGUGAGUGU (ssRNA) [28RPL23A mutant],no binding,–,–
AGGGGGAGGGUGUGGGGGCAGUGAGGGU (structured_RNA) [28RPL23A WT],–,binds,–
UGGUGCGCGGGUCCCGGGGAGGGGA (structured_RNA) [25COPS9 WT],–,–,binding result ([2]; G4 (in K+)): binds
